B1: BGA-3285-mutFc (Fc fusion)
chain: EVQLLESGGGLVQPGGSLRLSCAASGFTISAEDVGWVRQAPGKGLEWVSAILDFGGSTYYAESVKGRFTISRDNAKNTLYLQMSSLRAEDTAVYYCARVVYHAGGGVTFDTRGQGTQVTVSSGGGGSDKTHTCPPCPAPPAAGPSVFLFPPKPKDTLMISRTPEVTCVVVDVSHEDPEVKFNWYVDGVEVHNAKTKPREEQYNSTYRVVSVLTVLHQDWLNGKEYKCKVSNKALAAPIEKTISKAKGQPREPQVYTLPPSREEMTKNQVSLTCLVKGFYPSDIAVEWESNGQPENNYKTTPPVLDSDGSFFLYSKLTVDKSRWQQGNVFSCSVMHEALHNHYTQKSLSLSPGK
B2: BGA-3849-mutFc (Fc fusion)
chain: EVQLLESGGGLVQPGGSLRLSCAASGFTLSHEDVGWVRQAPGKGLEWVSAILDSGGSTYYAESVKGRFTISRDNAKNTLYLQMSSLRAEDTAVYYCARYVYHAGGGVTFDTRGQGTQVTVSSGGGGSDKTHTCPPCPAPPAAGPSVFLFPPKPKDTLMISRTPEVTCVVVDVSHEDPEVKFNWYVDGVEVHNAKTKPREEQYNSTYRVVSVLTVLHQDWLNGKEYKCKVSNKALAAPIEKTISKAKGQPREPQVYTLPPSREEMTKNQVSLTCLVKGFYPSDIAVEWESNGQPENNYKTTPPVLDSDGSFFLYSKLTVDKSRWQQGNVFSCSVMHEALHNHYTQKSLSLSPGK
B3: BGA-3953-mutFc (Fc fusion)
chain: EVQLLESGGGLVQPGGSLRLSCAASGFTVSAEDVGWVRQAPGKGLEWVSAILDSGGSTYYAESVKGRFTISRDNAKNTLYLQMSSLRAEDTAVYYCARIVYHAGGGVTFDTRGQGTQVTVSSGGGGSDKTHTCPPCPAPPAAGPSVFLFPPKPKDTLMISRTPEVTCVVVDVSHEDPEVKFNWYVDGVEVHNAKTKPREEQYNSTYRVVSVLTVLHQDWLNGKEYKCKVSNKALAAPIEKTISKAKGQPREPQVYTLPPSREEMTKNQVSLTCLVKGFYPSDIAVEWESNGQPENNYKTTPPVLDSDGSFFLYSKLTVDKSRWQQGNVFSCSVMHEALHNHYTQKSLSLSPGK
B4: BGA-4988-mutFc (Fc fusion)
chain: EVQLLESGGGLVQPGGSLRLSCAASGFTVSAEDVGWVRQAPGKGLEWVSAILDRGGSTYYAESVKGRFTISRDNAKNTLYLQMSSLRAEDTAVYYCARVVYHAGGGVTYDTRGQGTQVTVSSGGGGSDKTHTCPPCPAPPAAGPSVFLFPPKPKDTLMISRTPEVTCVVVDVSHEDPEVKFNWYVDGVEVHNAKTKPREEQYNSTYRVVSVLTVLHQDWLNGKEYKCKVSNKALAAPIEKTISKAKGQPREPQVYTLPPSREEMTKNQVSLTCLVKGFYPSDIAVEWESNGQPENNYKTTPPVLDSDGSFFLYSKLTVDKSRWQQGNVFSCSVMHEALHNHYTQKSLSLSPGK
B5: BGA-5385-mutFc (Fc fusion)
chain: EVQLLESGGGLVQPGGSLRLSCAASGFTLSAEDVGWVRQAPGKGLEWVSAILDHGGSTYYAESVKGRFTISRDNAKNTLYLQMSSLRAEDTAVYYCARVIYHAGGGVTYDYRGQGTQVTVSSGGGGSDKTHTCPPCPAPPAAGPSVFLFPPKPKDTLMISRTPEVTCVVVDVSHEDPEVKFNWYVDGVEVHNAKTKPREEQYNSTYRVVSVLTVLHQDWLNGKEYKCKVSNKALAAPIEKTISKAKGQPREPQVYTLPPSREEMTKNQVSLTCLVKGFYPSDIAVEWESNGQPENNYKTTPPVLDSDGSFFLYSKLTVDKSRWQQGNVFSCSVMHEALHNHYTQKSLSLSPGK
B6: BGA-7746-mutFc (Fc fusion)
chain: EVQLLESGGGLVQPGGSLRLSCAASGFTVSAEDVGWVRQAPGKGLEWVSAILDFGGSTYYAESVKGRFTISRDNAKNTLYLQMSSLRAEDTAVYYCARVVYHAGGGVTFDTRGQGTQVTVSSGGGGSDKTHTCPPCPAPPAAGPSVFLFPPKPKDTLMISRTPEVTCVVVDVSHEDPEVKFNWYVDGVEVHNAKTKPREEQYNSTYRVVSVLTVLHQDWLNGKEYKCKVSNKALAAPIEKTISKAKGQPREPQVYTLPPSREEMTKNQVSLTCLVKGFYPSDIAVEWESNGQPENNYKTTPPVLDSDGSFFLYSKLTVDKSRWQQGNVFSCSVMHEALHNHYTQKSLSLSPGK
B7: BGA-7916-mutFc (Fc fusion)
chain: EVQLLESGGGLVQPGGSLRLSCAASGFTVSAEDVGWVRQAPGKGLEWVSAILDSGGSTYYAESVKGRFTISRDNAKNTLYLQMSSLRAEDTAVYYCARVVYHAGGGVTYDTRGQGTQVTVSSGGGGSDKTHTCPPCPAPPAAGPSVFLFPPKPKDTLMISRTPEVTCVVVDVSHEDPEVKFNWYVDGVEVHNAKTKPREEQYNSTYRVVSVLTVLHQDWLNGKEYKCKVSNKALAAPIEKTISKAKGQPREPQVYTLPPSREEMTKNQVSLTCLVKGFYPSDIAVEWESNGQPENNYKTTPPVLDSDGSFFLYSKLTVDKSRWQQGNVFSCSVMHEALHNHYTQKSLSLSPGK
B8: BGA-8425-mutFc (Fc fusion)
chain: EVQLLESGGGLVQPGGSLRLSCAASGFTLSAEDVGWVRQAPGKGLEWVSAILDSGGSTYYAESVKGRFTISRDNAKNTLYLQMSSLRAEDTAVYYCARVVYHAGGGVTYDYRGQGTQVTVSSGGGGSDKTHTCPPCPAPPAAGPSVFLFPPKPKDTLMISRTPEVTCVVVDVSHEDPEVKFNWYVDGVEVHNAKTKPREEQYNSTYRVVSVLTVLHQDWLNGKEYKCKVSNKALAAPIEKTISKAKGQPREPQVYTLPPSREEMTKNQVSLTCLVKGFYPSDIAVEWESNGQPENNYKTTPPVLDSDGSFFLYSKLTVDKSRWQQGNVFSCSVMHEALHNHYTQKSLSLSPGK
B9: BGA-9442-mutFc (Fc fusion)
chain: EVQLLESGGGLVQPGGSLRLSCAASGFTISAEDVGWVRQAPGKGLEWVSAILDSGGSTYYAESVKGRFTISRDNAKNTLYLQMSSLRAEDTAVYYCARYVYHAGGGVTFDLRGQGTQVTVSSGGGGSDKTHTCPPCPAPPAAGPSVFLFPPKPKDTLMISRTPEVTCVVVDVSHEDPEVKFNWYVDGVEVHNAKTKPREEQYNSTYRVVSVLTVLHQDWLNGKEYKCKVSNKALAAPIEKTISKAKGQPREPQVYTLPPSREEMTKNQVSLTCLVKGFYPSDIAVEWESNGQPENNYKTTPPVLDSDGSFFLYSKLTVDKSRWQQGNVFSCSVMHEALHNHYTQKSLSLSPGK
B10: BGA-9468-mutFc (Fc fusion)
chain: EVQLLESGGGLVQPGGSLRLSCAASGFTVSAEDVGWVRQAPGKGLEWVSAILDSGGSTYYAESVKGRFTISRDNAKNTLYLQMSSLRAEDTAVYYCARVVYHSGGGVTFDLRGQGTQVTVSSGGGGSDKTHTCPPCPAPPAAGPSVFLFPPKPKDTLMISRTPEVTCVVVDVSHEDPEVKFNWYVDGVEVHNAKTKPREEQYNSTYRVVSVLTVLHQDWLNGKEYKCKVSNKALAAPIEKTISKAKGQPREPQVYTLPPSREEMTKNQVSLTCLVKGFYPSDIAVEWESNGQPENNYKTTPPVLDSDGSFFLYSKLTVDKSRWQQGNVFSCSVMHEALHNHYTQKSLSLSPGK
B11: Format A BGA-3285 (bispecific antibody, human IgG1, kappa)
heavy: QVQLVQSGAEVKKPGASVKVSCKASGYIFTSYYLHWVRQAPGQGLEWIGYINPQTGKTSYAQKFQGRVTMTRDTSTSTVYMELSSLRSEDTAVYYCAREYGNYNYPLDYWGQGTLVTVSSASTKGPSVFPLAPSSKSTSGGTAALGCLVKDYFPEPVTVSWNSGALTSGVHTFPAVLQSSGLYSLSSVVTVPSSSLGTQTYICNVNHKPSNTKVDKKVEPKSCDKTHTCPPCPAPPAAGPSVFLFPPKPKDTLMISRTPEVTCVVVDVSHEDPEVKFNWYVDGVEVHNAKTKPREEQYNSTYRVVSVLTVLHQDWLNGKEYKCKVSNKALAAPIEKTISKAKGQPREPQVYTLPPSREEMTKNQVSLTCLVKGFYPSDIAVEWESNGQPENNYKTTPPVLDSDGSFFLYSKLTVDKSRWQQGNVFSCSVMHEALHNHYTQKSLSLSPGKGGGGSEVQLLESGGGLVQPGGSLRLSCAASGFTISAEDVGWVRQAPGKGLEWVSAILDFGGSTYYAESVKGRFTISRDNAKNTLYLQMSSLRAEDTAVYYCARVVYHAGGGVTFDTRGQGTQVTVSS
light: DIQMTQSPSSLSASVGDRVTITCRASENQYGYLAWYQQKPGKVPKLLIYNYKNLVEGVPSRFSGSGSGTDFTLTISSLQPEDVATYYCQHHLGTPYTFGQGTKVEIKRTVAAPSVFIFPPSDEQLKSGTASVVCLLNNFYPREAKVQWKVDNALQSGNSQESVTEQDSKDSTYSLSSTLTLSKADYEKHKVYACEVTHQGLSSPVTKSFNRGEC
B12: Format A BGA-3953 (bispecific antibody, human IgG1, kappa)
heavy: QVQLVQSGAEVKKPGASVKVSCKASGYIFTSYYLHWVRQAPGQGLEWIGYINPQTGKTSYAQKFQGRVTMTRDTSTSTVYMELSSLRSEDTAVYYCAREYGNYNYPLDYWGQGTLVTVSSASTKGPSVFPLAPSSKSTSGGTAALGCLVKDYFPEPVTVSWNSGALTSGVHTFPAVLQSSGLYSLSSVVTVPSSSLGTQTYICNVNHKPSNTKVDKKVEPKSCDKTHTCPPCPAPPAAGPSVFLFPPKPKDTLMISRTPEVTCVVVDVSHEDPEVKFNWYVDGVEVHNAKTKPREEQYNSTYRVVSVLTVLHQDWLNGKEYKCKVSNKALAAPIEKTISKAKGQPREPQVYTLPPSREEMTKNQVSLTCLVKGFYPSDIAVEWESNGQPENNYKTTPPVLDSDGSFFLYSKLTVDKSRWQQGNVFSCSVMHEALHNHYTQKSLSLSPGKGGGGSEVQLLESGGGLVQPGGSLRLSCAASGFTVSAEDVGWVRQAPGKGLEWVSAILDSGGSTYYAESVKGRFTISRDNAKNTLYLQMSSLRAEDTAVYYCARIVYHAGGGVTFDTRGQGTQVTVSS
light: DIQMTQSPSSLSASVGDRVTITCRASENQYGYLAWYQQKPGKVPKLLIYNYKNLVEGVPSRFSGSGSGTDFTLTISSLQPEDVATYYCQHHLGTPYTFGQGTKVEIKRTVAAPSVFIFPPSDEQLKSGTASVVCLLNNFYPREAKVQWKVDNALQSGNSQESVTEQDSKDSTYSLSSTLTLSKADYEKHKVYACEVTHQGLSSPVTKSFNRGEC

These binders were tested against T1, human CD137 ECD-mIgG2a (human) (assay: SPR, Fc-fusion VH captured).
T1 construct: ECD 24-183 of huCD137 fused to mouse IgG2a Fc; also called huCD137-mIgG2a; huCD137
T1 sequence (chain, as listed by the source limits assumed): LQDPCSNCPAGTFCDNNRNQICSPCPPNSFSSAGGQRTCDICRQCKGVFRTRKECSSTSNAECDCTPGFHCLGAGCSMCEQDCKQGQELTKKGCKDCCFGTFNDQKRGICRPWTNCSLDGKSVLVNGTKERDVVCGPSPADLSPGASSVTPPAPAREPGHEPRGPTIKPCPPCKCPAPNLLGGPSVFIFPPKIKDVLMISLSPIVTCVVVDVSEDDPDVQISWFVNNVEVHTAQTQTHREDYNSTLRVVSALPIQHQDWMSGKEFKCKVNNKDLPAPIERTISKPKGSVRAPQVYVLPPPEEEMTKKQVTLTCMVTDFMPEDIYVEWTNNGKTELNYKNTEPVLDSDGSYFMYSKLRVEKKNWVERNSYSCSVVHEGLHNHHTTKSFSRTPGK
Procedure: (§1) Characterization of anti-huCD137 VH domain antibodies were made by SPR assays using BIAcore™ T-200 (GE Life Sciences). Briefly, anti-human IgG (Fc) antibody was immobilized on an activated CM5 biosensor chip (Cat.: BR100839, GE Life Sciences). Anti-huCD137 domain antibodies were flowed over the chip surface and captured by anti-human IgG (Fc) antibody. […] The equilibrium dissociation constant (KD) was calculated as the ratio koff/kₒₙ.
(§2) Affinity comparison on CD137 affinity matured variants was made by SPR assays using BIAcore™ T-200 (GE Life Sciences) and flow cytometry as described.
B1 was tested, and the Kd was 186 nM. In the case of B2, the Kd is reported as 76.3 nM. B3 showed a Kd of 48.3 nM. With B4 the Kd was 1030 nM. Binder B5 has a Kd of 100 nM. B6 was tested, and the Kd was 193 nM. B7 was tested, and the Kd was 87.7 nM. B8 was tested, and the Kd was 93.4 nM. B9 was tested, and the Kd was 151 nM. For B10, the Kd was 190 nM.

The binders below were run against T1, human CD137 ECD-mIgG2a (assay: SPR, A-CEAxCD137 format).
Procedure: as §1, §2
B11 was tested, and the Kd was 798 nM. B12 was tested, and the Kd was 115 nM.
